Measurements from paper PMC8377056.
Values joined by “and” are separate entries in the source; they are usually repeats but may differ in a detail not shown here. Equal entries are not always repeated.

What was measured:
[1] = target: His-tagged recombinant mouse LDLR (mouse) (UniProt P35951); experiment: SPR; His-tagged LDLR immobilised on a NiHC1000m sensor chip; VH4127 (10-160 nM) or Fc(A680)-VH4127 (1-16 nM) injected, single-cycle kinetics; 1:1 Langmuir model; Biacore T200
[2] = target: His-tagged recombinant human LDLR (human) (UniProt P01130); experiment: SPR; His-tagged LDLR immobilised on a NiHC1000m sensor chip; VH4127 (10-160 nM) injected, single-cycle kinetic method; double-subtracted sensorgrams fitted globally with the 1:1 Langmuir model (Biacore T200)
[3] = target: His-tagged recombinant mouse LDLR (mouse) (UniProt P35951); experiment: as above
[4] = target: His-tagged recombinant human LDLR (human) (UniProt P01130); experiment: SPR; His-tagged mouse or human LDLR immobilised on a NiHC1000m sensor chip; VH4127 (10-160 nM) or Fc(A680)-VH4127 (1-16 nM) injected, single-cycle kinetics; double-subtracted sensorgrams fitted globally with the 1:1 Langmuir model (Biacore T200)

Sequence of His-tagged recombinant human LDLR (human) (P01130 22-788): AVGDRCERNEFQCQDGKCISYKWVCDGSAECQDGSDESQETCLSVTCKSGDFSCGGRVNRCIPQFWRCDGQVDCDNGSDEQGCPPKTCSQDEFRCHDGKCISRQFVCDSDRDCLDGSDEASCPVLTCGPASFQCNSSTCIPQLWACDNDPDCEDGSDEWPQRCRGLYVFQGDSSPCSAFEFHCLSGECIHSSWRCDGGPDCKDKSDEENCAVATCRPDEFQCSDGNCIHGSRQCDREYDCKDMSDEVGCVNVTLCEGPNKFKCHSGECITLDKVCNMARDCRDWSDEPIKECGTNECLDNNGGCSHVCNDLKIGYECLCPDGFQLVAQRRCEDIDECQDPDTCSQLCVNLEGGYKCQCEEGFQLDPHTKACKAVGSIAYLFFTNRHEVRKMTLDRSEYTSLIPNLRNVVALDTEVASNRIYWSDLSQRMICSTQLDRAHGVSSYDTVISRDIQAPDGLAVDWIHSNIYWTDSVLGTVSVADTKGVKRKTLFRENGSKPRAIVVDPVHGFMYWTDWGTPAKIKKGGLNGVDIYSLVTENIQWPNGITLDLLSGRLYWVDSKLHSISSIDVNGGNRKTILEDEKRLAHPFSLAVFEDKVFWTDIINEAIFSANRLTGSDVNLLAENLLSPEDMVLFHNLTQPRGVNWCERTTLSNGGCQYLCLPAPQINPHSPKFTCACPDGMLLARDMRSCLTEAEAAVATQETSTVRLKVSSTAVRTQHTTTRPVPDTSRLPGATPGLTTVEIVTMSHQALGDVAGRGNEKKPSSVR
Sequence of His-tagged recombinant mouse LDLR (mouse) (P35951 22-790): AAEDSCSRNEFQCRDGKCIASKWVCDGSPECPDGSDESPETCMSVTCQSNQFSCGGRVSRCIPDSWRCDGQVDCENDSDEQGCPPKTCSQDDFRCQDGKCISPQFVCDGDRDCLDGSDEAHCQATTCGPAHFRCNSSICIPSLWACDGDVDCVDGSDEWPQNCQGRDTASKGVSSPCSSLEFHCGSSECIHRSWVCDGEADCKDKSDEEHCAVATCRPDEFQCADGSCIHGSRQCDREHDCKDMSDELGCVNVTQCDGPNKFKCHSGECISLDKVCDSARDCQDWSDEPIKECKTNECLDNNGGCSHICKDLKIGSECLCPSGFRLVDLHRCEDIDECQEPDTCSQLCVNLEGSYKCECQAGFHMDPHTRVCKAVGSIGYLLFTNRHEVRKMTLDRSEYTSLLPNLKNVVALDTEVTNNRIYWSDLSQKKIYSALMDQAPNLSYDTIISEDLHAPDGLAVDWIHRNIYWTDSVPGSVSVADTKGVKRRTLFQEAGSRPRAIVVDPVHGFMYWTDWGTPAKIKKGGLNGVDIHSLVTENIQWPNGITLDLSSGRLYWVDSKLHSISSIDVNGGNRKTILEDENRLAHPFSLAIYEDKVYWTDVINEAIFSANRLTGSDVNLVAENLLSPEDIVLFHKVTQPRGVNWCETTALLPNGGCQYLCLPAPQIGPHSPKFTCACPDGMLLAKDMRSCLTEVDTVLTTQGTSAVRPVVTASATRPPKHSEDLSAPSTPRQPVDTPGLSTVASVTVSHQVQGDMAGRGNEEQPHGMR

Row | Kd [1] [nM] | koff [2] [s⁻¹] | kon [2] [M⁻¹ s⁻¹] | koff [3] [s⁻¹] | kon [3] [M⁻¹ s⁻¹] | Kd [4] | Substance
1 | 0.0918 |  |  |  |  |  | Fc(A680)-VH4127 conjugate (Fc fusion)
2 |  | 0.0894 | 4.06e+06 | 0.0821 | 1.66e+06 | 21.5 nM and 20 nM and 23.2 nM | VH4127 peptide
